{"source": "paper PMC10329019", "about": "“Membrane translocation process revealed by in situ structures of type II secretion system secretins” (Nature Communications, 2023)", "proteins": {"B1": {"name": "GspDβ secretin (ETEC H10407 strain) with hexahistidine tag, from pETDuet-gspDβ-his-gspS, co-expressed with GspS (natural protein, UniProt E3PJ86 41-686, looked up)", "chain": "EEATFTANFKDTDLKSFIETVGANLNKTIIMGPGVQGKVSIRTMTPLNERQYYQLFLNLLEAQGYAVVPMENDVLKVVKSSAAKVEPLPLVGEGSDNYAGDEMVTKVVPVRNVSVRELAPILRQMIDSAGSGNVVNYDPSNVIMLTGRASVVERLTEVIQRVDHAGNRTEEVIPLDNASASEIARVLESLTKNSGENQPATLKSQIVADERTNSVIVSGDPATRDKMRRLIRRLDSEMERSGNSQVFYLKYSKAEDLVDVLKQVSGTLTAAKEEAEGTVGSGREIVSIAASKHSNALIVTAPQDIMQSLQSVIEQLDIRRAQVHVEALIVEVAEGSNINFGVQWASKDAGLMQFANGTQIPIGTLGAAISQAKPQKGSTVISENGATTINPDTNGDLSTLAQLLSGFSGTAVGVVKGDWMALVQAVKNDSSSNVLSTPSITTLDNQEAFFMVGQDVPVLTGSTVGSNNSNPFNTVERKKVGIMLKVTPQINEGNAVQMVIEQEVSKVEGQTSLDVVFGERKLKTTVLANDGELIVLGGLMDDQAGESVAKVPLLGDIPLIGNLFKSTADKKEKRNLMVFIRPTILRDGMAADGVSQRKYNYMRAEQIYRDEQGLSLMPHTAQPVLPAQNQALPPEVRAFLNAGRTR", "notes": "GspDβ, Vibrio-type type II secretion system secretin encoded in the T2SSβ operon, ETEC H10407 strain; Probably the same C-terminally tagged chain as m2 (surmised); also called Vibrio-type secretin; copies: 15"}, "B2": {"name": "GspDβ secretin (ETEC H10407 strain) with C-terminal hexahistidine tag, from pETDuet-gspDβ-his, expressed alone (natural protein, UniProt E3PJ86 41-686, looked up)", "chain": "B1 chain", "notes": "GspDβ, Vibrio-type type II secretion system secretin encoded in the T2SSβ operon, ETEC H10407 strain; The results name BL21(DE3) for this experiment, the methods name Rosetta (DE3) for cryo-ET imaging; also called Vibrio-type secretin; source: E. coli Rosetta (DE3) minicells (co-transformed with pBS58), pETDuet-gspDβ-his, overexpressed, imaged in the cells; copies: 15"}, "B3": {"name": "GspDα secretin (E. coli K12 strain), no tag (natural protein, UniProt P45758 24-650, looked up)", "chain": "ENEQYGANFNNADIRQFVEIVGQHLGKTILIDPSVQGTISVRSNDTFSQQEYYQFFLSILDLYGYSVITLDNGFLKVVRSANVKTSPGMIADSSRPGVGDELVTRIVPLENVPARDLAPLLRQMMDAGSVGNVVHYEPSNVLILTGRASTINKLIEVIKRVDVIGTEKQQIIHLEYASAEDLAEILNQLISESHGKSQMPALLSAKIVADKRTNSLIISGPEKARQRITSLLKSLDVEESEEGNTRVYYLKYAKATNLVEVLTGVSEKLKDEKGNARKPSSSGAMDNVAITADEQTNSLVITADQSVQEKLATVIARLDIRRAQVLVEAIIVEVQDGNGLNLGVQWANKNVGAQQFTNTGLPIFNAAQGVADYKKNGGITSANPAWDMFSAYNGMAAGFFNGDWGVLLTALASNNKNDILATPSIVTLDNKLASFNVGQDVPVLSGSQTTSGDNVFNTVERKTVGTKLKVTPQVNEGDAVLLEIEQEVSSVDSSSNSTLGPTFNTRTIQNAVLVKTGETVVLGGLLDDFSKEQVSKVPLLGDIPLVGQLFRYTSTERAKRNLMVFIRPTIIRDDDVYRSLSKEKYTRYRQEQQQRIDGKSKALVGSEDLPVLDENTFNSHAPAPSSR", "notes": "The untagged vector was used for cryo-ET imaging; the His-tagged one only for blots; also called Klebsiella-type secretin; GspDα multimer; copies: 15"}}, "key": {"[1]": {"target": "the molecule itself", "assay": "cryo-EM structure; in situ cryo-ET subtomogram averaging of particles on the outer membrane of E. coli minicells overexpressing GspDβ and GspS; 514 particles, C15 symmetry, 19 Å; C5 refinement as a test of symmetry"}, "[2]": {"target": "the molecule itself", "assay": "cryo-EM structure; in situ cryo-ET subtomogram averaging of particles on the outer membrane of E. coli minicells overexpressing only GspDβ; 723 particles, C15 symmetry, 16 Å; C5 refinement as a test of symmetry"}, "[3]": {"target": "the molecule itself", "assay": "cryo-EM structure; in situ cryo-ET subtomogram averaging of GspDα particles on the inner membrane of E. coli BL21 (DE3) minicells; about 32,000 particles, C15 symmetry, 9 Å; particle radius histogram"}}, "data": [{"protein": "B1", "values": [{"measurement": "stoichiometry N", "setting": "[1]", "value": 15}]}, {"protein": "B2", "values": [{"measurement": "stoichiometry N", "setting": "[2]", "value": 15}]}, {"protein": "B3", "values": [{"measurement": "stoichiometry N", "setting": "[3]", "value": 15}]}]}
